Reference: the supplement of paper PMC10065799, “High-throughput profiling of sequence recognition by tyrosine kinases and SH2 domains using bacterial peptide display” (eLife, 2023)

system: AncSZ; experiment: phosphorylation enrichment, bacterial display (enrichment ratio); higher = better substrate or ligand; peptides without Tyr show the background
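Note: 11-residue human phosphosite peptides and single-mutation variants displayed on the E. coli surface, counted by deep sequencing, each peptide's frequency after selection divided by its frequency in the unselected input library; frequency after pTyr selection over input frequency; kinase dosed for 20-30% of maximal phosphorylation in three min.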

Sequence | phosphorylation enrichment
YYHCTYKKRMI [CLEC12A_Y242] | 1.37
RLLVVYPWTER [HBB_Y36_Q40E] | 1.16
YSMGCYEISLG [HMGCL_Y198] | 2.12
GADAIYDHINE [UQCR10_Y44] | 1.03
LLKKIYLMLDN [STAT1_Y203_M202I] | 1.85
GASWRYRSGVS [NEU1_Y242_G243R] | 0.583
IRSGIYYKPES [L2HGDH_Y102_H98R] | 0.899
ICANKYMVKSC [RPL10_Y75] | 0.719
TSNNPYFRDQA [RPGRIP1_Y846_A841T] | 0.665
AFLQTYSHEVS [PCDHGA5_Y753] | 0.845
HKLSSYEYDFE [BTK_Y40_Y39S] | 1.84
SGEKPYKCSEC [ZNF543_Y283] | 0.664
WRPFGYPRCRR [BCS1L_Y181_R184C] | 0.599
SLAARYYNWVC [FLT4_Y1230_S1235C] | 1.4
FAAAGYGSLEA [EPHA10_Y959] | 0.86
RENGPYYASYP [GDAP2_Y487_T489A] | 1.04
PYTDPYYDYEI [ZC3H18_Y371_A368T] | 3.74

Sequence | phosphorylation enrichment
GPQSLYNGLVA [UCP2_Y79_R76Q] | 0.622
KWRGQYDVAIE [BTK_Y425_K430E] | 0.631
LQTFHYHGHSM [PDHA1_Y289_R288H_YF] | 0.599
GSCQEYTGAPF [NAXD_Y85_G81S_YF] | 1.16
AEPDIYQEKLS [USP54_Y1233] | 0.994
FTNRSYDLDYD [MYC_Y12_N11S] | 1.24
GPCKAYELSQR [SETX_Y1297_R1294C] | 0.735
GEPLSYTRFSL [TFRC_Y20] | 0.833
YVPSNYVAEDR [FRK_Y104_I100V] | 0.886
TRSFDYMEGED [FGF7_Y58_G62E_YF] | 1.41
MSFDRYMAVCH [OR2A5_Y123_I126V_YF] | 1.09
ENAGYYFRISA | 1.51
AKKVFYMIETR [SHH_Y253_V254M] | 1.15
KIIATYRLCSE [DNAH3_Y1586_V1583I] | 0.887
TFVKSYTIHFS [F5_Y2153_M2148T_YF] | 1.04
NSRFTYKLEVK [USH2A_Y3747_YF] | 1.22

biological target: Fes (UniProt P07332); experiment: as above
Sequence (P07332 whole entry, looked up): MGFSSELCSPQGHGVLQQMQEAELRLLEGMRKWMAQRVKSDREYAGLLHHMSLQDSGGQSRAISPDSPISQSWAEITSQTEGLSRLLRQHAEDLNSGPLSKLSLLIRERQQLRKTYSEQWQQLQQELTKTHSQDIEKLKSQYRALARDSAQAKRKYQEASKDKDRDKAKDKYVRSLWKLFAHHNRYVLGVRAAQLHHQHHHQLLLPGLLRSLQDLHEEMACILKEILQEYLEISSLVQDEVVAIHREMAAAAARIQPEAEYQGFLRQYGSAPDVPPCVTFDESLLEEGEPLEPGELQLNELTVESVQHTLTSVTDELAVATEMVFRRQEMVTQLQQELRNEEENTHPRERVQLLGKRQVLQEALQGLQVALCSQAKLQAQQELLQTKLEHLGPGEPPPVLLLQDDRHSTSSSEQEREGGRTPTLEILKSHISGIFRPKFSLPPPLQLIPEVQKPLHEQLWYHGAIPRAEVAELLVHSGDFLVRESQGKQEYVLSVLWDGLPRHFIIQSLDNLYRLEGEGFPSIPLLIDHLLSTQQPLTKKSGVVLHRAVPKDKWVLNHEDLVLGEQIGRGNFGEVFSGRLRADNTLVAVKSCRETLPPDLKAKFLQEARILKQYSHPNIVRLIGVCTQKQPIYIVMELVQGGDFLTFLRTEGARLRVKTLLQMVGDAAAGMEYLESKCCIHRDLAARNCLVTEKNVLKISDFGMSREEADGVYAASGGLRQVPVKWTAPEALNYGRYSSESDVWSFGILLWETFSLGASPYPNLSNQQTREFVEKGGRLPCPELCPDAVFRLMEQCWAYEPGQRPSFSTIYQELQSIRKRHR

Sequence | phosphorylation enrichment
YYHCTYKKRMI [CLEC12A_Y242] | 1.21
RLLVVYPWTER [HBB_Y36_Q40E] | 1.21
YSMGCYEISLG [HMGCL_Y198] | 1.47
GADAIYDHINE [UQCR10_Y44] | 0.953
LLKKIYLMLDN [STAT1_Y203_M202I] | 2.38
GASWRYRSGVS [NEU1_Y242_G243R] | 0.693
IRSGIYYKPES [L2HGDH_Y102_H98R] | 0.687
ICANKYMVKSC [RPL10_Y75] | 0.815
TSNNPYFRDQA [RPGRIP1_Y846_A841T] | 0.796
AFLQTYSHEVS [PCDHGA5_Y753] | 0.971
HKLSSYEYDFE [BTK_Y40_Y39S] | 1.51
SGEKPYKCSEC [ZNF543_Y283] | 0.829
WRPFGYPRCRR [BCS1L_Y181_R184C] | 0.509
SLAARYYNWVC [FLT4_Y1230_S1235C] | 1.47
FAAAGYGSLEA [EPHA10_Y959] | 0.844
RENGPYYASYP [GDAP2_Y487_T489A] | 0.869
PYTDPYYDYEI [ZC3H18_Y371_A368T] | 1.97

Sequence | phosphorylation enrichment
GPQSLYNGLVA [UCP2_Y79_R76Q] | 0.614
KWRGQYDVAIE [BTK_Y425_K430E] | 0.774
LQTFHYHGHSM [PDHA1_Y289_R288H_YF] | 0.715
GSCQEYTGAPF [NAXD_Y85_G81S_YF] | 1.04
AEPDIYQEKLS [USP54_Y1233] | 1.08
FTNRSYDLDYD [MYC_Y12_N11S] | 1.13
GPCKAYELSQR [SETX_Y1297_R1294C] | 0.969
GEPLSYTRFSL [TFRC_Y20] | 0.935
YVPSNYVAEDR [FRK_Y104_I100V] | 0.754
TRSFDYMEGED [FGF7_Y58_G62E_YF] | 1.6
MSFDRYMAVCH [OR2A5_Y123_I126V_YF] | 1.1
ENAGYYFRISA | 1.48
AKKVFYMIETR [SHH_Y253_V254M] | 1.24
KIIATYRLCSE [DNAH3_Y1586_V1583I] | 0.951
TFVKSYTIHFS [F5_Y2153_M2148T_YF] | 1.29
NSRFTYKLEVK [USH2A_Y3747_YF] | 1.39
